Source: article doi:10.1101/2020.10.06.328112
Where two headings read alike, the source gives them in different places.

Key:
[1] = biological target: Recombinant human cyclophilin A (human) (UniProt P62937); assay: native MS
[2] = biological target: Recombinant human cyclophilin A (human) (UniProt P62937); assay: native MS; remark: listed apart in the source

**Q.** For “Recombinant human cyclophilin A (from UniProt P62937 1-165) (enzyme)”, which stoichiometry N [1] is on record?
**A.** 2

**Q.** What about the stoichiometry N [2] of the same substance?
**A.** 2
